The values below come from PMC6499816 (Nature Communications, 2019).

Ends that are not written are not given here.

Common to all, as to conditions: both partners purified
Assay [1] deals with T1, GABARAP-L2 (recombinant, BLI) (human, UniProt P60520 1-117).
T1 construct: human GABARAP-L2; source: recombinant; bacterial expression plasmid pAL
Briefly: BLI; biotinylated LIR peptide (50 μg/ml) immobilised on streptavidin biosensor, ATG8 in solution; Octet Red 96; 25 mM Tris pH 7.5, 150 mM NaCl, 0.5 mM TCEP, 0.1% Tween-20, 1 mg/ml BSA; 25 °C; Kd from response against concentration. On the technique in general: In BLI a coated tip is dipped into the sample, and binding shifts an interference pattern.

In the next assay the target is LC3B (recombinant, BLI) (human, UniProt Q9GZQ8 1-120). Described as above.
The target of assay [2] is GABARAP-L1 (recombinant, BLI) (human, UniProt Q9H0R8 1-117). Described as above.
Chain of GABARAP-L1 (recombinant, BLI) (Q9H0R8 whole entry, looked up): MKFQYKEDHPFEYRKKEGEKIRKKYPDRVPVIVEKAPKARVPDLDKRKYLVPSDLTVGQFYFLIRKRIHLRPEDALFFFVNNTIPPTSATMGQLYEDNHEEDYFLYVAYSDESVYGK
For assay [3], the target named is T2, GABARAP (recombinant, BLI) (human, UniProt O95166 1-117).
T2 construct: full-length human GABARAP; also called WT GABARAP; source: recombinant; bacterial expression plasmid pAL
The assay is described as above.

The target of the next assay is T3, LC3C (human, UniProt Q9BXW4 1-126).
T3 construct: LC3C, human, full length; The plasmid has a 3C protease site after GST; source: recombinant, expressed in bacteria from the pAL plasmid (modified pGEX-6P2)
Briefly: BLI; biotinylated LIR peptide immobilised on streptavidin biosensors (Octet Red 96), ATG8 protein in solution; 25 mM Tris pH 7.5, 150 mM NaCl, 0.5 mM TCEP, 0.1% Tween-20, 1 mg/ml BSA, 25 °C; Kd from response against concentration, Y=Rmax*X/(Kd+X).

Another assay deals with T4, LC3A (human, UniProt Q9H492 1-121).
T4 construct: LC3A, human, full length; The plasmid has a 3C protease site after GST; source: recombinant, expressed in bacteria from the pAL plasmid (modified pGEX-6P2)
The description is as above.

The target of the next assay is T5, GABARAP (human, UniProt O95166 1-117).
T5 construct: GABARAP, human, full length; The plasmid has a 3C protease site after GST; also called GABARAP WT; source: recombinant, expressed in bacteria from the pAL plasmid (modified pGEX-6P2)
Described as above.

T1 sequence (P60520 whole entry): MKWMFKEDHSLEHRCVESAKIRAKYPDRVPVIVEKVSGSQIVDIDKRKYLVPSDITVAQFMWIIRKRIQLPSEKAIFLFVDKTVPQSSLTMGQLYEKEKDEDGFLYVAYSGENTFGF

B1: p62 LIR peptide (biotinylated, BLI) (peptide)
chain: SDNCSGGDDDWTHLSSKEVDPSTG
modifications: also: biotin, position not given here
Turning to B1, the Kd (commonly the free concentration of one partner at which half of the binding sites on the other are occupied at equilibrium, for simple one-to-one binding) in assay [1] was found to be 5.2 µM; with LC3B (recombinant, BLI), 4.5 µM.

B2: FIP200 LIR peptide (biotinylated, BLI) (peptide)
chain: PDSIDAHTFDFETIPHPNIEQTIH
modifications: also: biotin, position not given here
For the molecule B2, the Kd in assay [2] is 7 µM; in assay [3], 5.6 µM.

B3: ATG13 LIR peptide (biotinylated, BLI) (peptide)
chain: GGSSGNTHDDFVMIDFKPAFSKDD
modifications: also: biotin, position not given here
On to B3, for which the Kd in assay [2] was found to be 0.53 µM; in assay [3] it was 0.59 µM.

B4: ULK1 (aa 353-369) LIR peptide (peptide, UniProt O75385 353-369, looked up)
peptide: DTDDFVMVPAQFPGDLV
modifications: not fully specified (N-terminus); also: biotinylated, position not given here
notes: source: synthetic peptide
B4: the Kd with LC3C is 1.9 µM; in the assay with LC3A, 7.71 µM; with GABARAP, 0.116 µM.
